From US20230235054A1 (BIOATLA, published 2023)

Experiments:
huNectin4-His [1] = target: T1, huNectin4-His (human, UniProt Q96NY8 32-349); assay: SPR, huNectin4-His immobilized, pH 7.4; pH 7.4
T1 construct: Immobilized on the SPR chip; also called humanNectin4; human Nectin4; not shown: His tag
T1 sequence (looked up): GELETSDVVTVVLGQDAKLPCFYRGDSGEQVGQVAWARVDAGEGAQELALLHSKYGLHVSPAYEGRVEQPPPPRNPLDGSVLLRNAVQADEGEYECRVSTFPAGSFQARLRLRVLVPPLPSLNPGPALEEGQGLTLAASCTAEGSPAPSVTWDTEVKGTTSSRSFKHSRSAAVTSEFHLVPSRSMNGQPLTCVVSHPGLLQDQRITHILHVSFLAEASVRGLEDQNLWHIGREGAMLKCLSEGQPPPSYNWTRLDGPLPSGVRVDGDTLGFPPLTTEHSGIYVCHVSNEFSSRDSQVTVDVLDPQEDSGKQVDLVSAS
Protocol: (§1) Binding kinetics of anti-Nectin4 antibodies were measured by surface plasmon resonance using a SPR2/4 instrument (Sierra Sensors, Hamburg, Germany) and flat amine sensor chips. The SPR sensor contained four flow cells (FC1-FC4), each of which was addressed individually or in groups. huNectin4-His was immobilized in FC2, and cynoNectin4-mFc in FC4. No protein was immobilized in FC1 and FC3 which were used as control surfaces for FC2 and FC4, respectively.
(§2) All injections were done at a flow rate of 25 μL/min at 25° C. The sensor surface was activated with 1-ethyl-3-(3-dimethylaminopropyl)-carbodiimide (EDC) and N-hydroxysuccinimide (NHS) (200 mM/50 mM) for 480 seconds. HuNectin4-His (2 μg/mL in 10 mM NaAc, pH4.5) was injected for 480s and the surface was inactivated by injecting 1M ethanolamine-HCl for 480s. CynoNectin4 was immobilized using the same conditions as described for huNectin4-His, except that the cynoNectin4 was diluted into 10 mM NaAc buffer having pH 5.0. The control surface was activated and deactivated using the same conditions, but without injecting protein. PBST buffer (PBS pH 7.4 with 0.05% TWEEN20™) was used as running buffer for the surface preparation. The running solution was switched to PBST with 30 mM sodium bicarbonate with the pH adjusted as indicated in the figures before the analyte injections. The instrument was equilibrated with the running solution for one hour before the first analyte injection.
(§3) The off-rate was measured for 360s. The chip surface was regenerated after each cycle of interaction analysis by injecting 6 μL of 10 mM glycine (pH 2.0). Flow cells 1 and 3 without immobilized protein were used as control surfaces for reference subtraction.

huNectin4-His [2] = target: T1, huNectin4-His; assay: SPR, huNectin4-His immobilized, pH 6.5; pH 6.5
Protocol: as §1, §2, §3

B1: BAP-143-00-02 (antibody, V domains shown)
VH: EVQLVESGGGLVQPGGSLRLSCAASGFTFSSYNMNWVRQAPGKGLEWVSYISSSSSTIYYADSVKGRFTISRDNAKNSLSLQMNSLRDEDTAVYYCARAYYYGMDVWGQGTTVTVSS
VL: DIQMTQSPSSVSASVGDRVTITCRASQGISGWLAWYQQKPGKAPKFLIYAASTLQSGVPSRFSGSGSGTDFTLTISSLQPEDFATYYCQQANSEPPTFGGGTKVEIK
notes: Used as a conjugate with a linker payload (CAB ADC)
huNectin4-His [1]
  Kd: 9.76 nM
  koff: 0.00478 s⁻¹
  kon: 490000 M⁻¹ s⁻¹
huNectin4-His [2]
  Kd: 9.31 nM
  koff: 0.00574 s⁻¹
  kon: 617000 M⁻¹ s⁻¹
